From paper PMC6704107 (2019)

Columns and labels:
AAVR PKD1-5 D435A = target: T1, AAVR PKD1-5 D435A (UniProt Q8IZA0-1 1-1049, D435A); test: SPR
T1 sequence: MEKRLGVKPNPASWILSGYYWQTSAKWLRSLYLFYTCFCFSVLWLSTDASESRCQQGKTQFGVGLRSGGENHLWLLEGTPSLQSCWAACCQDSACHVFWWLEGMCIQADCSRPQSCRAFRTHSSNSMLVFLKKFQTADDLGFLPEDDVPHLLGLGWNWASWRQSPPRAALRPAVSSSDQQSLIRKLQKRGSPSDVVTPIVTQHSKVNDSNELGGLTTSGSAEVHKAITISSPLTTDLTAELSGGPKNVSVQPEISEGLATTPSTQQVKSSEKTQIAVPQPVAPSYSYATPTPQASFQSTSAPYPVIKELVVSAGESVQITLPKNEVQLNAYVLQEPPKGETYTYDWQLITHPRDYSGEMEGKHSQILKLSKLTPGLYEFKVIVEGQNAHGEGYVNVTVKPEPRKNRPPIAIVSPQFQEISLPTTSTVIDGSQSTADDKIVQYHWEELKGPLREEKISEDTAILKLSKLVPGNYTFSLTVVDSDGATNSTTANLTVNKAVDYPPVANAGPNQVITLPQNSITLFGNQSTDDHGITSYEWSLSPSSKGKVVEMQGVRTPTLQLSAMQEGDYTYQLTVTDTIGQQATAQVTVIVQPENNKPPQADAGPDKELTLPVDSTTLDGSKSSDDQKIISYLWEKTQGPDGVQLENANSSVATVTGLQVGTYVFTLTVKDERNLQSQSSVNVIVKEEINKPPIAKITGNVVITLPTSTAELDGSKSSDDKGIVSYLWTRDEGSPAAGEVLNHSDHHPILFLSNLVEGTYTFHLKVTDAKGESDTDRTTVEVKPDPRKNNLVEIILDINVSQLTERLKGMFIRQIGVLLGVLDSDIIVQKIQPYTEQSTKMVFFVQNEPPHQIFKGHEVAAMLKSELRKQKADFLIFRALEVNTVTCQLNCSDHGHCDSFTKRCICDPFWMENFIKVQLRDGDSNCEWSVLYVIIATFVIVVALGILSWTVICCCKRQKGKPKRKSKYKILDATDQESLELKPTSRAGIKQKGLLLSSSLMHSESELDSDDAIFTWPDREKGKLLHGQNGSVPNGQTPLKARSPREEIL

AAVR PKD1-5 S425A = target: T2, AAVR PKD1-5 S425A (UniProt Q8IZA0-1 1-1049, S425A); test: SPR
T2 sequence: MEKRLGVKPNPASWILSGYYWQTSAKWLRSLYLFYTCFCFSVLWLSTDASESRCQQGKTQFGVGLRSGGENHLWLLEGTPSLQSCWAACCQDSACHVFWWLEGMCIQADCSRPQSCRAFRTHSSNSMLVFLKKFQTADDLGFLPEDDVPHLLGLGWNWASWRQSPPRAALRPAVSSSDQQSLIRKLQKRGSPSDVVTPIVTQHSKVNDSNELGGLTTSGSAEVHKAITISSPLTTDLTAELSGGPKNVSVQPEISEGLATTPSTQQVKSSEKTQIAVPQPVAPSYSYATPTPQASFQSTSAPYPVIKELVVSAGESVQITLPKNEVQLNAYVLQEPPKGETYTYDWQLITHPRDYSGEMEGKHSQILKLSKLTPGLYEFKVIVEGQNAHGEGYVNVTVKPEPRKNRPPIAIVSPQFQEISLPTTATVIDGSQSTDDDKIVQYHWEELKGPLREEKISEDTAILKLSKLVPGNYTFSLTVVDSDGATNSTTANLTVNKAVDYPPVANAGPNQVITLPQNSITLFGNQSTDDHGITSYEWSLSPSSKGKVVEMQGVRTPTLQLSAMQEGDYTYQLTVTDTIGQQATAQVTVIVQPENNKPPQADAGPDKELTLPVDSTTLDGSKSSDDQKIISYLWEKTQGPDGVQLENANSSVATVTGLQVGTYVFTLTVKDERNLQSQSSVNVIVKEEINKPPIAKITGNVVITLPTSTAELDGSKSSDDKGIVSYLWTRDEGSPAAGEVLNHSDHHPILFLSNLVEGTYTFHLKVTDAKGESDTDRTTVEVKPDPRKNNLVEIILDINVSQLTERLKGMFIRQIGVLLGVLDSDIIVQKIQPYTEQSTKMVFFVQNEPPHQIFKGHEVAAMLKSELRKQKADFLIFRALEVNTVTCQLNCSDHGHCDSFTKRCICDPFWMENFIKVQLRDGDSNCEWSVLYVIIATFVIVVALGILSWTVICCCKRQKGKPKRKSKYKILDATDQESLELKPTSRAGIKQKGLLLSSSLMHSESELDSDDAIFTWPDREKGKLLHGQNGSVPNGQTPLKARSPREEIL

B1: Adeno-associated virus 1 (AAV1) particle, wild-type capsid (complex)
chain: MAADGYLPDWLEDNLSEGIREWWDLKPGAPKPKANQQKQDDGRGLVLPGYKYLGPFNGLDKGEPVNAADAAALEHDKAYDQQLKAGDNPYLRYNHADAEFQERLQEDTSFGGNLGRAVFQAKKRVLEPLGLVEEGAKTAPGKKRPVEQSPQEPDSSSGIGKTGQQPAKKRLNFGQTGDSESVPDPQPLGEPPATPAAVGPTTMASGGGAPMADNNEGADGVGNASGNWHCDSTWLGDRVITTSTRTWALPTYNNHLYKQISSASTGASNDNHYFGYSTPWGYFDFNRFHCHFSPRDWQRLINNNWGFRPKRLNFKLFNIQVKEVTTNDGVTTIANNLTSTVQVFSDSEYQLPYVLGSAHQGCLPPFPADVFMIPQYGYLTLNNGSQAVGRSSFYCLEYFPSQMLRTGNNFTFSYTFEEVPFHSSYAHSQSLDRLMNPLIDQYLYYLNRTQNQSGSAQNKDLLFSRGSPAGMSVQPKNWLPGPCYRQQRVSKTKTDNNNSNFTWTGASKYNLNGRESIINPGTAMASHKDDEDKFFPMSGVMIFGKESAGASNTALDNVMITDEEEIKATNPVATERFGTVAVNFQSSSTDPATGDVHAMGALPGMVWQDRDVYLQGPIWAKIPHTDGHFHPSPLMGGFGLKNPPPQILIKNTPVPANPPAEFSATKFASFITQYSTGQVSVEIEWELQKENSKRWNPEVQYTSNYAKSANVDFTVDNNGLYTEPRPIGTRYLTRPL
Binder B1 has a Kd (AAVR PKD1-5 D435A) of 13.6 µM and a Kd (AAVR PKD1-5 S425A) of 3.88 µM.
